± gives the standard deviation.
Test: protein stability index of a GFP-peptide fusion (GPS, HEK-293T) (PSI 1-6); higher = more stable
[1] = treatment: DMSO, c terminus: a fixed tail appended
[2] = treatment: MLN4924 1 uM, 8 h, c terminus: a fixed tail appended
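Note: 24-mer peptide tiles fused after GFP, lentivirally expressed, FACS-sorted into six equal bins by GFP/DsRed ratio, decoded by Illumina sequencing, PSI is the read-weighted mean bin number.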

Row | Sequence | protein stability index [1] | protein stability index [2] | protein stability index (treatment: DMSO, c terminus: native) | protein stability index (treatment: MLN4924 1 uM, 8 h, c terminus: native)
1 | SDTRVGAPATGSGTPGPFTKEGGM [CHIT1] | 4.76 ± 0.26 | 4.98 ± 0.14 |  | 
2 | ITWIAGAVTKDFKLTDKHETVVSY [ACSBG2] | 2.3 ± 0.25 | 2.03 ± 0.33 |  | 
3 | IDLSAWCYYCQAYVHHQALLDVKN [HDAC6] | 2.73 ± 0.38 | 3.08 ± 1.2 |  | 
4 | PRRRRPGCYAYRQNPEAIAAAAMY [MYORG] | 2.78 ± 0.19 | 2.9 ± 0.34 |  | 
5 | MGSLSSRVLRQPRPALAQQAQGAR [GMCL1] | 4.46 ± 0.28 | 4.56 ± 0.18 |  | 
6 | LQEPGVFSPTPPQQFQPAGTDQVC [FCHSD1] | 4.25 ± 0.16 | 4.45 ± 0.27 |  | 
7 | AAIGVTTSPVLPSLIQLLGRNFIL [HACD3] | 2.67 ± 0.19 | 2.55 ± 0.6 |  | 
8 | PPRGPLAKHRLVPPAQGRVSRRLS [TRIM9] | 4.21 ± 0.27 | 4.16 ± 0.49 |  | 
9 | LVCTADGDIHLSPEEPAASTDPNI [TAF7L] | 4.85 ± 0.2 | 4.89 ± 0.22 |  | 
10 | EMSEKRGPTSSNPRKRHREDSDVE [MLH1] | 5.49 ± 0.44 | 5.49 ± 0.14 |  | 
11 | IYDLNIPAFVKFAYVAEREDELSL [NCK2] | 2.25 ± 0.39 | 2.51 ± 0.2 |  | 
12 | VNRKSVKGNTALHDCAESGSLDIM [FEM1C] | 3.7 ± 0.28 | 3.46 ± 0.47 |  | 
13 | QSERQRHESQQLATETQALAQRTQ [TEKT4] | 5.43 ± 0.21 | 5.32 ± 0.16 |  | 
14 | EDQGGLEAVRQEMRRQEPLPPPPP [WAS] | 5.3 ± 0.15 | 5.42 ± 0.22 |  | 
15 | SDAAFGGILERYWLSSRAAAIKVN [MYORG] | 2.19 ± 0.2 | 2.17 ± 0.21 |  | 
16 | TLITAVELERFVNLHSLALDFCDF [FBXO33] | 2.47 ± 0.28 | 2.95 ± 1.3 |  | 
17 | ENVLAALEGLNLSILKAMGKTKKD [NECAB1] | 3.12 ± 0.12 | 3.31 ± 0.18 |  | 
18 | GPEPKDKGSLPQPPITEVESQVFS [ZNF232] | 5.51 ± 0.078 | 5.36 ± 0.23 |  | 
19 | PPRPPPRGTPPRRHSFRKHLYLLR [N4BP2L1] | 3.32 ± 0.35 | 3.56 ± 0.23 |  | 
20 | QVFLDRINRADYCPECYPDNPANR [TOR1AIP2] | 2.76 ± 0.33 | 2.9 ± 0.28 |  | 
21 | LAAVTPHDFIEHILRKLPQQREKL [CCND2] | 2.53 ± 0.17 | 2.74 ± 0.23 |  | 
22 | AMFTGGMKEQDLMCIKLHGVSKVG [KLHL13] | 2.54 ± 0.42 | 2.58 ± 0.33 |  | 

Row | Sequence | protein stability index [1] | protein stability index [2] | protein stability index (treatment: DMSO, c terminus: native) | protein stability index (treatment: MLN4924 1 uM, 8 h, c terminus: native)
23 | TIKRSSQTGEWQNIAIMTEEPELS [GFOD1] | 4.42 ± 0.33 | 4.26 ± 0.43 |  | 
24 | RTPRLMPDKESMYYPRVQHYRELL [GDAP1] | 2.52 ± 0.17 | 2.61 ± 0.27 |  | 
25 | PIMSGQGLAGFFASVAMICAIASG [SLC29A1] | 3.12 ± 0.21 | 3.13 ± 0.48 |  | 
26 | REVMESAVGNSSGSGQNEESPRKR [FBXO28] | 5.51 ± 0.14 | 5.49 ± 0.38 |  | 
27 | DNSDYDYSALSCTSDASFHPAFLP [KCNG1] | 3.59 ± 0.26 | 3.46 ± 0.32 |  | 
28 | LDDIIRHDFFLQGFTPDRLSSSCC [PLK2] | 2.48 ± 0.043 | 2.64 ± 0.3 |  | 
29 | SLEDLIFESLPENASHKLEVRLVP [ATE1] | 2.79 ± 0.3 | 2.98 ± 0.3 |  | 
30 | ADSQITTIGNLVPQKTYSVKVLAF [PTPRD] | 2.46 ± 0.56 | 2.17 ± 0.28 |  | 
31 | EGNSMRCGRKLAKDGEYCWRWTGF [GMCL1] | 2.49 ± 0.22 | 2.11 ± 0.14 |  | 
32 | AFPGASHESSGNPPLRVIVKDALF [RHOBTB3] | 2.96 ± 0.28 | 3.25 ± 0.41 |  | 
33 | LHQTVERIHVGKKYGDIPRGIFVV [LSM1] | 2.76 ± 0.59 | 2.59 ± 0.63 |  | 
34 | MRGRIYLEPPTMRKKRLLDRKVLL [GOLPH3L] | 2.34 ± 0.27 | 2.47 ± 0.29 |  | 
35 | WCRDRLLGHREPSAHPVEVFSFDL [TMEM175] | 2.39 ± 0.3 | 2.25 ± 0.39 |  | 
36 | SVVSYTLKDIHDDQDYLHSLGKAR [FLOT1] | 3.43 ± 0.3 | 3.54 ± 0.28 |  | 
37 | YNVSPLSWNVAVKFLMARKFDVLR [PTPN9] | 3.02 ± 0.62 | 2.46 ± 0.88 |  | 
38 | GRYPLIQTLRQELSLPYLPSGTPE [CHIT1] | 3.51 ± 0.26 | 3.47 ± 0.27 |  | 
39 | LLARPGTGEHREFKLDKKYQRPQD [FBF1] | 3.95 ± 0.41 | 4.16 ± 0.3 |  | 
40 | AHRAILVARCEVMAAMFNGNYMEA [RHOBTB3] | 2.54 ± 0.95 | 2.08 ± 0.97 |  | 
41 | RRLIKRFSFKSKPKANGNPSPQL [C2CD2L] |  |  | 4.24 ± 0.3 | 4.38 ± 0.16
42 | NNKKWILSASKDRTMRLWNIEEID [WDR88] | 2.66 ± 0.12 | 2.86 ± 0.44 |  | 
43 | DGKRCRRKDVCKSTHHGCEHICVN [MATN2] | 3.65 ± 0.3 | 3.92 ± 0.21 |  | 
44 | GSGGTRGPPSRGGHMDDGGYSMNF [RBMX] | 3.96 ± 0.24 | 4 ± 0.43 |  | 

Row | Sequence | protein stability index [1] | protein stability index [2] | protein stability index (treatment: DMSO, c terminus: native) | protein stability index (treatment: MLN4924 1 uM, 8 h, c terminus: native)
45 | ESPIPEDKDRRFVFSYFLATDMIS [EFHC1] | 2.33 ± 0.28 | 2.23 ± 0.29 |  | 
46 | KHLTARVLCLIVLPLALYTATFAV [POMT2] | 3.38 ± 0.42 | 3.15 ± 0.58 |  | 
47 | VRLGSFRSPRAGAGALLRLPSERL [PRPH] | 2.96 ± 0.16 | 3.23 ± 0.24 |  | 
48 | TYTYTSRPRALPCQRSRYRDSLTQ [RSPH3] | 3.18 ± 0.23 | 3.18 ± 0.14 |  | 
49 | DSSNSMQTIQKTTTRRIVDGKVVS [KRT18] | 3.61 ± 0.19 | 3.73 ± 0.31 |  | 
50 | EDSSNQEEEGPSTFPDLESEFQAA [MAGEA3] | 5.51 ± 0.28 | 5.48 ± 0.16 |  | 
51 | LNAEAGHLDPGFLASDKTSAGNAP [C18orf25] | 5.07 ± 0.14 | 4.98 ± 0.14 |  | 
52 | VSTFLSGVMLTWPDGLMYQKFRNQ [TMEM120A] | 2.85 ± 0.82 | 2.36 ± 0.54 |  | 
53 | LNRALSNLSSRWKNWWVRGILTLA [CDS2] | 3.17 ± 0.31 | 3.1 ± 0.49 |  | 
54 | THSSVVLQGFDQLRLEGLLCDVTL [KLHL13] | 2.43 ± 0.33 | 2.19 ± 0.19 |  | 
55 | LVNHVNIRLQAELEEGENPVPAFQ [SMG5] | 4.04 ± 0.091 | 4.07 ± 0.17 |  | 
56 | KAQALRDNSTMGYMMAKKHLEINP [HSP90AB1] | 3.39 ± 0.14 | 3.5 ± 0.23 |  | 
57 | SDINSLRRILDELTLCRSDLEAQM [KRT33B] | 2.85 ± 0.36 | 2.92 ± 0.38 |  | 
58 | QAELSYKKVSEGPPLRLWRSVIEV [DLC1] | 2.19 ± 0.31 | 2.49 ± 0.43 |  | 
59 | LLGLKAFLGLFFIVRFLESNWFVW [FADS1] | 2.9 ± 0.47 | 2.31 ± 0.43 |  | 
60 | ISPWNLPLYLLTWKIAPAMAAGNT [ALDH8A1] | 3.06 ± 0.53 | 3.05 ± 0.62 |  | 
61 | ADQWKSSNKSLVEALGLEAEGAVP [RHOBTB1] | 5.1 ± 0.17 | 4.83 ± 0.22 |  | 
62 | SSKAHTSRFISANLPCNKFKNRLV [PTPRD] | 2.58 ± 0.35 | 2.59 ± 0.26 |  | 
63 | AAAFPTEDSRTSKESMSEADRAQK [EHMT1] | 5.59 ± 0.25 | 5.514 ± 0.053 |  | 
64 | HGEEEVETFAFQAEIAQLMSLIIN [HSP90AB1] | 2.58 ± 0.33 | 2.95 ± 0.28 |  | 
65 | LLSLNSLLPESGIVADIELENVLD [TFE3] | 3.3 ± 0.49 | 3.3 ± 0.19 |  | 
